Laboratory results reported in US20150218238A1, “TREATING DISEASES BY MODULATING A SPECIFIC ISOFORM OF MKL1” (NOVARTIS FORSCHUNGSSTIFTUNG, ZWEIGNIEDERLASSUNG FRIEDRICH …, priority 2012, published 2015).

System: EcR-293 cells
Experiment: DNA microarray on EcR-293 cells overexpressing MKL1 isoforms
Type: cell-based, human
Settings: for ACTA2 fold change vs. control / ADAM21 fold change vs. control / AMBN fold change vs. control / CNN2 fold change vs. control / DSEL fold change vs. control / ESRRG fold change vs. control / MKL1 (total) fold change vs. control / MMP16 fold change vs. control / NAP1L3 fold change vs. control / OSTN fold change vs. control / PDGFD fold change vs. control / ROCK1P1 fold change vs. control / RORB fold change vs. control / SLC8A1 fold change vs. control / SPOCK3 fold change vs. control: vs empty pcDNA3 vector
Description: DNA microarray EcR-293 cells stably transfected with 1) the empty pcDNA3 vector, 2) 5′UTR-MKL_L, 3) 5′UTR-MKL_S were grown in triplicates. For “untreated” samples, total RNA was extracted from cells in D-MEM/10% FBS. “LPA treated” cells were starved for 16 h in D-MEM/0.3% FBS and subsequently treated with 50 μm LPA for 20 min. RNA was extracted 4 h after treatment. RNA was converted into labeled cRNA and hybridized to Affymetrix Human Gene 1.0 arrays (Affymetrix, Santa Clara, Calif., USA). The procedure for the microarray analysis was as previously described (4). Differences in gene expression were calculated for 2) vs. 1), 3) vs. 1), and 3) vs. 2). • (1) Miralles F et al., Cell, Volume 113, Issue 3, May 2003, 329-342 • (2) Maier S et al., Biochimica et Biophysica Acta (BBA)—Molecular Cell Research, Volume 1783, Issue 6, June 2008, 1150-1162 • (3) Martina et al., The FASEB Journal, Volume 24, Issue 3, March 2010, 778-787 • (4) Asparuhova et al., The FASEB Journal, Volume 25, Issue 10, October 2011, 3477-3488

B1: MKL_S: novel short isoform of human MKL1 (SEQ ID NO:1), stably overexpressed in EcR-293 cells from construct 5′UTR-MKL_S (protein, listed as Homo sapiens)
chain: MTLLEPEMLMMAVQSVLQLKLQQRRTREELVSQGIMPPLKSPAAFHEQRRSLERARTEDYLKRKIRSRPERSELVRMHILEETSAEPSLQAKQLKLKRARLADDLNEKIAQRPGPMELVEKNILPVESSLKEAIIVGQVNYPKVADSSSFDEDSSDALSPEQPASHESQGSVPSPLEARVSEPLLSATSASPTQVVSQLPMGRDSREMLFLAEQPPLPPPPLLPPSLTNGTTIPTAKSTPTLIKQSQPKSASEKSQRSKKAKELKPKVKKLKYHQYIPPDQKQDRGAPPMDSSYAKILQQQQLFLQLQILNQQQQQHHNYQAILPAPPKSAGEALGSSGTPPVRSLSTTNSSSSSGAPGPCGLARQNSTSLTGKPGALPANLDDMKVAELKQELKLRSLPVSGTKTELIERLRAYQDQISPVPGAPKAPAATSILHKAGEVVVAFPAARLSTGPALVAAGLAPAEVVVATVASSGVVKFGSTGSTPPVSPTPSERSLLSTGDENSTPGDTFGEMVTSPLTQLTLQASPLQILVKEEGPRAGSCCLSPGGRAELEGRDKDQMLQEKDKQIEALTRMLRQKQQLVERLKLQLEQEKRAQQPAPAPAPLGTPVKQENSFSSCQLSQQPLGPAHPFNPSLAAPATNHIDPCAVAPGPPSVVVKQEALQPEPEPVPAPQLLLGPQGPSLIKGVAPPTLITDSTGTHLVLTVTNKNADSPGLSSGSPQQPSSQPGSPAPAPSAQMDLEHPLQPLFGTPTSLLKKEPPGYEEAMSQQPKQQENGSSSQQMDDLFDILIQSGEISADFKEPPSLPGKEKPSPKTVCGSPLAAQPSPSAELPQAAPPPPGSPSLPGRLEDFLESSTGLPLLTSGHDGPEPLSLIDDLHSQMLSSTAILDHPPSPMDTSELHFVPEPSSTMGLDLADGHLDSMDWLELSSGGPVLSLAPLSTTAPSLFSTDFLDGHDLQLHWDSCL
ACTA2 fold change MKL_S vs. MKL_L (4 h after LPA treatment): <1.20 fold
ADAM21 fold change MKL_S vs. MKL_L (4 h after LPA treatment): +1.65 (2.95E−05) fold
AMBN fold change MKL_S vs. MKL_L (4 h after LPA treatment): +1.67 (1.04E−03) fold
CNN2 fold change MKL_S vs. MKL_L (4 h after LPA treatment): +1.44 (1.06E−06) fold
DSEL fold change MKL_S vs. MKL_L (4 h after LPA treatment): +1.50 (2.87E−04) fold
ESRRG fold change MKL_S vs. MKL_L (4 h after LPA treatment): <1.20 fold
MKL1 (total) fold change MKL_S vs. MKL_L (4 h after LPA treatment): −1.91 (3.79E−06) fold
MMP16 fold change MKL_S vs. MKL_L (4 h after LPA treatment): +2.54 (1.95E−05) fold
NAP1L3 fold change MKL_S vs. MKL_L (4 h after LPA treatment): +1.49 (1.82E−03) fold
OSTN fold change MKL_S vs. MKL_L (4 h after LPA treatment): +1.92 (1.57E−04) fold
PDGFD fold change MKL_S vs. MKL_L (4 h after LPA treatment): <1.20 fold
ROCK1P1 fold change MKL_S vs. MKL_L (4 h after LPA treatment): +1.60 (1.99E−03) fold
RORB fold change MKL_S vs. MKL_L (4 h after LPA treatment): <1.20 fold
SLC8A1 fold change MKL_S vs. MKL_L (4 h after LPA treatment): −1.31 (1.42E−03) fold
SPOCK3 fold change MKL_S vs. MKL_L (4 h after LPA treatment): 2.18 (2.70E−06) fold
ACTA2 fold change MKL_S vs. MKL_L (untreated cells): <1.20 fold
ADAM21 fold change MKL_S vs. MKL_L (untreated cells): <1.20 fold
AMBN fold change MKL_S vs. MKL_L (untreated cells): +1.73 (5.61E−04) fold
CNN2 fold change MKL_S vs. MKL_L (untreated cells): +1.53 (7.48E−06) fold
DSEL fold change MKL_S vs. MKL_L (untreated cells): +1.51 (1.13E−03) fold
ESRRG fold change MKL_S vs. MKL_L (untreated cells): <1.20 fold
MKL1 (total) fold change MKL_S vs. MKL_L (untreated cells): −1.54 (8.11E−08) fold
MMP16 fold change MKL_S vs. MKL_L (untreated cells): +2.03 (9.27E−06) fold
NAP1L3 fold change MKL_S vs. MKL_L (untreated cells): +1.75 (1.30E−04) fold
OSTN fold change MKL_S vs. MKL_L (untreated cells): +1.90 (2.17E−04) fold
PDGFD fold change MKL_S vs. MKL_L (untreated cells): <1.20 fold
ROCK1P1 fold change MKL_S vs. MKL_L (untreated cells): <1.20 fold
RORB fold change MKL_S vs. MKL_L (untreated cells): <1.20 fold
SLC8A1 fold change MKL_S vs. MKL_L (untreated cells): <1.20 fold
SPOCK3 fold change MKL_S vs. MKL_L (untreated cells): +1.97 (6.82E−06) fold
ACTA2 fold change vs. control (4 h after LPA treatment): +2.02 (2.99E−05) fold
ADAM21 fold change vs. control (4 h after LPA treatment): +1.38 (3.69E−06) fold
AMBN fold change vs. control (4 h after LPA treatment): +5.14 (1.97E−07) fold
CNN2 fold change vs. control (4 h after LPA treatment): +1.67 (6.37E−08) fold
DSEL fold change vs. control (4 h after LPA treatment): +2.33 (1.17E−06) fold
ESRRG fold change vs. control (4 h after LPA treatment): +1.93 (4.52E−08) fold
MKL1 (total) fold change vs. control (4 h after LPA treatment): +2.41 (3.56E−07) fold
MMP16 fold change vs. control (4 h after LPA treatment): +5.86 (1.39E−07) fold
NAP1L3 fold change vs. control (4 h after LPA treatment): +2.78 (2.44E−06) fold
OSTN fold change vs. control (4 h after LPA treatment): +2.23 (3.48E−05) fold
PDGFD fold change vs. control (4 h after LPA treatment): +1.61 (8.28E−06) fold
ROCK1P1 fold change vs. control (4 h after LPA treatment): +1.53 (3.63E−03) fold
RORB fold change vs. control (4 h after LPA treatment): +1.46 (1.34E−04) fold
SLC8A1 fold change vs. control (4 h after LPA treatment): +1.67 (1.71E−05) fold
SPOCK3 fold change vs. control (4 h after LPA treatment): +5.04 (8.54E−09) fold
ACTA2 fold change vs. control (untreated cells): +2.30 (1.88E−07) fold
ADAM21 fold change vs. control (untreated cells): −1.21 (1.63E−02) fold
AMBN fold change vs. control (untreated cells): <1.20 fold
CNN2 fold change vs. control (untreated cells): +2.53 (1.91E−08) fold
DSEL fold change vs. control (untreated cells): +2.43 (5.20E−06) fold
ESRRG fold change vs. control (untreated cells): +2.37 (2.34E−08) fold
MKL1 (total) fold change vs. control (untreated cells): +3.70 (1.19E−11) fold
MMP16 fold change vs. control (untreated cells): +2.98 (3.46E−07) fold
NAP1L3 fold change vs. control (untreated cells): +2.68 (1.98E−06) fold
OSTN fold change vs. control (untreated cells): <1.20 fold
PDGFD fold change vs. control (untreated cells): +2.01 (4.75E−05) fold
ROCK1P1 fold change vs. control (untreated cells): <1.20 fold
RORB fold change vs. control (untreated cells): +1.96 (2.76E−07) fold
SLC8A1 fold change vs. control (untreated cells): +1.70 (5.75E−07) fold
SPOCK3 fold change vs. control (untreated cells): +3.21 (1.08E−07) fold
